The supplement of paper PMC9170038

Tested on: MS2 coat protein
Assay: apparent KD of MS2 coat protein; designed switch direction (-1 OFF switch, 1 ON switch): -1; higher = weaker reporter binding
In short: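 Each step of the titration lasted 0.8–1.5 h at the lowest concentration and 10–20 min at the highest. The protein, SNAP-549-labelled MS2 coat protein, went from 0.7 or 1.5 nM doubling to 3 µM over RNA switches transcribed on Illumina chips by stalled E. coli RNA polymerase. Normalised cluster fluorescence was curve-fitted, and the per-design median over clusters is given as apparent KD.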

[1] = Eterna round: R95, input ligand: FMN 200 uM
[2] = Eterna round: R95, input ligand: microRNA oligo, concentration not stated
[3] = Eterna round: R95, input ligand: none
[4] = input ligand: microRNA oligo, concentration not stated

Row | Sequence | apparent KD of MS2 coat protein (input ligand: FMN 200 uM) [nM] | apparent KD of MS2 coat protein (input ligand: none) [nM] | apparent KD of MS2 coat protein [1] [nM] | apparent KD of MS2 coat protein [2] [nM] | apparent KD of MS2 coat protein [3] [nM] | apparent KD of MS2 coat protein [4] [nM]
1 | GUUUGCAGACGGAGAUCCUACAUGAGGAUCACCCAUGUCUCACUAGCUUUUUGCUCGUCUUAUCCUCCUCUGUUCUC [Elimod 27 - Jieux - Sensor, turn-off variant 1] (Eterna round: R97, puzzle: Sensor, turn-off variant 1) | 260 | 303 |  |  |  | 
2 | GUUUUCAGACGGAGAUCCGACAUGAGGAUCACCCAUGUCUCACAAGCUUUUUGCUCGUCUUAUACUCCUCUGUUCUC [Elimod 43 - Jieux - Sensor, turn-off variant 1] (Eterna round: R97, puzzle: Sensor, turn-off variant 1) | 16.9 | 15.9 |  |  |  | 
3 | GUUUUCAGACGGAGAUCCUACAUGAGGAUCACCCAUGUCUCUCUUGUUCCUUGCUCGUCUUUUCCUCCUCUGUUCUC [Elimod 33 - Jieux - Sensor, turn-off variant 1] (Eterna round: R97, puzzle: Sensor, turn-off variant 1) | 657 | 847 |  |  |  | 
4 | UAAAAGAAGGUCAGGAUAUGUAGUGAGCAAUCAGGACAGAAGGGACAUGAGGAUCACCCAUGUAACAGGGUAAA [Eninares] (puzzle: Brourd's mod of Exclusion 4) |  |  | 104 | 44.6 | 43.1 | 
5 | UAAAAGCUAGGAUAUACAUGAGGAUCACCCAUGUCAACCACACGGAUGCGCCGAGCAUGUAGAAGGAGCACCGG [Soora] (puzzle: Exclusion 3) |  |  |  | 17 |  | 
6 | UAAAAGUCAGGAUAUACAUGAGGAUCACCCAUGUAAAAUUUUAAUUUAAUUUUAAGGUGUAGAAGGGACAAUUU [Ex3 #1] (Eterna round: R97, puzzle: Exclusion 3) | 32.5 | 34.9 |  |  |  | 
7 | UAAACUUGCUUCCGAUCCUACAUGAGGAUCACCCAUGUGCUCGUCUUGUAUCGUACUGUGACGUUAGUCACGGUACG [mod my first] (Eterna round: R97, puzzle: Sensor, turn-off variant 1) | 477 | 464 |  |  |  | 
8 | UAACCCGCGCGAGGAUAUCACAUGAGGAUCACCCAUGUGGCACUCCGUCACCGGGCAGUCCCGAGUGAGAAGGUGCAGGCGGGA [Bireisen] (Eterna round: R96, puzzle: Exclusion NG 2) | 62.8 | 26 |  |  |  | 22.1
9 | UAACGGGUUUCUUCGUUUACAACAUGAGGAUCACCCAUGUUUGAGGAUAUCCACUAAGCUCUUCAGGAGAAGGCAAACAUAAUG [Teanarxe] (Eterna round: R96, puzzle: Exclusion NG 3) | 20.6 | 15.4 |  |  |  | 12.2
10 | UAACUACAUGAGGAUCACCCAUGUCAGGAUAUGCCGUUAAAUUAACAUCAACAUACGGGUAGAAGGGACAACGU [1st #3] (Eterna round: R97, puzzle: Exclusion 1) | 31.5 | 29.8 |  |  |  | 
11 | UAAUACAAGCAAAGAUCCUACAUGAGGAUCACCCAUGUGUUCGUCUUAUAAAGUACUAUCACGAAAGUGAUAGUACA [Mat - Sensor v3 - turn-off var 1 - Eli Mod - D79] (puzzle: Sensor v3, turn-off variant 1) |  |  | 81.6 | 12.3 | 110 | 
12 | UAAUGCAAGCAAAGAUUCUACAUGAGGAUCACCCAUGUGCUCGUCUUAUAAAGUACUAUCACGAAAGUGAUAGUACA [Mat - Sensor v3 - turn-off var 1 - Eli Mod - D96] (puzzle: Sensor v3, turn-off variant 1) |  |  | 25.7 | 75.7 | 27.1 | 
13 | UAAUGUAUAUAGGAUAUCUAGCUGGUAACAGCUAGAGAAGGAUGUACAUGAGGAUCACCCAUGUAAAUCAGUGA [Ex6/14-B2] (Eterna round: R97, puzzle: Exclusion 6) | 186 | 41.6 |  |  |  | 
14 | UAAUGUAUAUAGGAUAUCUAGCUGGUAACAGCUAGAGAAGGAUGUACAUGAGGAUCACCCAUGUAAAUCGAUCA [Ex6/11-A2] (Eterna round: R97, puzzle: Exclusion 6) | 83.3 | 24.4 |  |  |  | 
15 | UACACCACAUGAGGAUCAAACAUGAGGAUCACCCAUGUGUAGCAAGCUUUUUGCUCGUCUUAUAAAUAUGUGGUGUA [Electric Eye 7 - Jieux - Sensor, turn-off variant 1] (Eterna round: R97, puzzle: Sensor, turn-off variant 1) | 11.7 | 11.9 |  |  |  | 
16 | UACACCGCAUGAGGAUCAAACAUGAGGAUCACCCAUGUGUAGCAAGCUUUUUGCUCGUCUUAUAAAUAUGUGGUGUA [Electric Eye 9 - Jieux - Sensor, turn-off variant 1] (Eterna round: R97, puzzle: Sensor, turn-off variant 1) | 12.6 | 13 |  |  |  | 
